Measurements published in the supplement of paper PMC7877785.
± gives the uncertainty stated by the source.

Experiment: self-splicing fitness, log relative to wild type (ln ratio); higher = more splicing; Tetrahymena group I intron in knt gene, E. coli kanamycin selection, DiMSum; sequences stand for … in CUCUCU…GGAGGGAAAAGUUAUCAGGCAUGCACCUGGUAGCUAGUCUUUAAACCAAUAGAUUGCAUCGGUUUAAAAGGCAAGACCGUCAAAUUGCGGGAAAGGGGUCAACAGCCGUUCAGUACCAAGUCUCAGGGGAAACUUUGAGAUGGCCUUGCAAAGGGUAUGGUAAUAAGCUGACGGACAUGGUCCUAACCACGCAGCCAAGUCCUAAGUCAACAGAUCUUCUGUUGAUAUGGAUGCAGUUCACAGACUAAAUGUCGGUCGGGGAAGAUGUAUUCUUCUCAUAAGAUAUAGUCGGACCUCUCCUUAAUGGGAGCUAGCGGAUGAAGUGAUGCAACACUGGAGCCGCUGGGAACUAAUUUGUAUGCGAAAGUAUAUUGAUUAGUUUUGGAGUACUCGUGGUCG
In short: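 Library with all eight P1ex-region intron nucleotides randomised, intron inside the knt kanamycin-resistance gene on pET-22b(+), in E. coli BL21(DE3). Cells grew overnight at 37°C or 30°C on LB agar with or without 25 μg/mL kanamycin (plus 100 μg/mL carbenicillin, 50 μM IPTG, 0.2% rhamnose), in six replicate transformations. Pooled colonies were amplicon-sequenced on Illumina HiSeq 2500. DiMSum fitness is the error-weighted combination of wild-type-normalised replicate fold changes, kanamycin versus none.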

Sequence	self-splicing fitness (ln) (30 °C)	self-splicing fitness (ln) (37 °C)
UAUGAGCAAUAUUACGUGUU	-3.34 ± 0.17	-2.99 ± 0.18
UAUUAGCAAUAUUACGACAG	-1.58 ± 0.18	-0.556 ± 0.19
UAUUAGCAAUAUUACGACCG	0.0866 ± 0.13	-0.0729 ± 0.16
UAUUAGCAAUAUUACGACUA	-0.146 ± 0.096	0.46 ± 0.11
UAUUAGCAAUAUUACGAGAC	-2.57 ± 0.47	
UAUUAGCAAUAUUACGAGUA	-0.732 ± 0.25	-0.0897 ± 0.24
UAUUAGCAAUAUUACGAUCA	-0.168 ± 0.11	-0.249 ± 0.14
UAUUAGCAAUAUUACGAUGA	-0.641 ± 0.11	0.262 ± 0.13
UAUUAGCAAUAUUACGAUGU	-3.01 ± 0.23	-1.06 ± 0.15
UAUUAGCAAUAUUACGCAAG	-2.29 ± 0.16	-1.8 ± 0.18
UAUUAGCAAUAUUACGCAUC	-3.67 ± 0.31	-1.7 ± 0.3
UAUUAGCAAUAUUACGCCCG	0.243 ± 0.36	1.09 ± 0.36
UAUUAGCAAUAUUACGCGUA	-1.95 ± 0.16	-0.462 ± 0.12
UAUUAGCAAUAUUACGCUGC	-2.92 ± 0.27	-2.59 ± 0.49
UAUUAGCAAUAUUACGGAAU	-4.02 ± 0.33	-0.66 ± 0.19
UAUUAGCAAUAUUACGGACA	-1.16 ± 0.2	0.703 ± 0.28
UAUUAGCAAUAUUACGGACU	-2.33 ± 0.31	-1.47 ± 0.4
UAUUAGCAAUAUUACGGAGU	-3.84 ± 0.43	-2.01 ± 0.29
UAUUAGCAAUAUUACGGAUA		-0.897 ± 0.46
UAUUAGCAAUAUUACGGAUC	-1.65 ± 0.18	-0.508 ± 0.28
UAUUAGCAAUAUUACGGUAU	-3.6 ± 0.29	-2.26 ± 0.31
UAUUAGCAAUAUUACGGUUG	-0.953 ± 0.15	-0.107 ± 0.17
UAUUAGCAAUAUUACGUACU	-0.305 ± 0.13	-0.224 ± 0.16
UAUUAGCAAUAUUACGUAUC	-3.31 ± 0.24	-2.47 ± 0.29

Sequence	self-splicing fitness (ln) (30 °C)	self-splicing fitness (ln) (37 °C)
UAUUAGCAAUAUUACGUCGG	-1.21 ± 0.12	-0.795 ± 0.15
UAUUAGCAAUAUUACGUGAC	-2.92 ± 0.42	-1.82 ± 0.27
UAUUAGCAAUAUUACGUGGA	-2.75 ± 0.32	-0.0772 ± 0.19
UAUUAGCAAUAUUACGUGGG	-4.06 ± 0.27	-2.44 ± 0.17
UAUUAGCAAUAUUACGUUAC	-3.17 ± 0.23	-2.86 ± 0.32
UCAAAGCAAUAUUACGAAGG	-2.26 ± 0.1	-1.05 ± 0.13
UCAAAGCAAUAUUACGAAUU	-3.32 ± 0.25	-1.65 ± 0.16
UCAAAGCAAUAUUACGACCG	-0.525 ± 0.15	0.396 ± 0.21
UCAAAGCAAUAUUACGACGA	-0.51 ± 0.074	0.278 ± 0.095
UCAAAGCAAUAUUACGACUG	-0.4 ± 0.086	-0.859 ± 0.11
UCAAAGCAAUAUUACGAGGU	-3.05 ± 0.13	-2.14 ± 0.14
UCAAAGCAAUAUUACGCACA	-0.843 ± 0.079	-0.191 ± 0.082
UCAAAGCAAUAUUACGCAGA	-3.13 ± 0.21	-2.64 ± 0.16
UCAAAGCAAUAUUACGCCUG	-0.562 ± 0.066	-0.293 ± 0.091
UCAAAGCAAUAUUACGCUAC	-2.96 ± 0.46	-2.22 ± 0.37
UCAAAGCAAUAUUACGGAUC	-3.94 ± 0.41	-3.23 ± 0.4
UCAAAGCAAUAUUACGGCCG	-0.434 ± 0.1	0.158 ± 0.17
UCAAAGCAAUAUUACGGUAC	-3.28 ± 0.16	-2.71 ± 0.22
UCAAAGCAAUAUUACGGUUG	-1.38 ± 0.086	-0.732 ± 0.12
UCAAAGCAAUAUUACGUAAA	-1.73 ± 0.13	-1.94 ± 0.21
UCAAAGCAAUAUUACGUACA	-1.2 ± 0.14	-0.562 ± 0.16
UCAAAGCAAUAUUACGUAUU	-3.03 ± 0.14	-2.13 ± 0.17
UCAAAGCAAUAUUACGUCAG	-1.75 ± 0.086	-0.944 ± 0.097
UCAAAGCAAUAUUACGUCCG	-0.781 ± 0.12	-0.625 ± 0.16
